Patent publication US20170355766A1 (Xencor, published 2017)
Numbering of substitutions follows the chain as printed. Numbers in names are those of the source.

T1: human H131 FcγRIIa receptor protein (6xHis and GST tags) (human, UniProt P12318 34-217, limits assumed)
T1 construct: also called HIIa
T1 sequence (looked up): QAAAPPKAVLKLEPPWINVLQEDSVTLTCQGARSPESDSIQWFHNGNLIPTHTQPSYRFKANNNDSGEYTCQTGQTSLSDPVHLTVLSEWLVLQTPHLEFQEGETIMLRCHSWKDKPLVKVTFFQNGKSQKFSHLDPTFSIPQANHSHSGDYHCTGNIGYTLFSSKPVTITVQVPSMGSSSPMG

T2: human FcγRIIb receptor protein (R&D Systems) (human, UniProt P31994 46-217)
T2 construct: Analyte injected over antibodies captured on a protein A/G chip (Biacore); also called CD32b
T2 sequence (looked up): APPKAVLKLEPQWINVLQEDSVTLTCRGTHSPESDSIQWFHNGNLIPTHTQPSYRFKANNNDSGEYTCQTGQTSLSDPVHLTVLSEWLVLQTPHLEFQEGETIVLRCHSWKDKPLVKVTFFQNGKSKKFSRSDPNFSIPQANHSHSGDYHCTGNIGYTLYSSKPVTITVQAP

T3: FcγRIIaR (human, UniProt P12318)
T3 construct: recombinant receptor protein with 6xHis and GST tags; also called R131 FcγRIIa
T3 sequence (receptor, looked up): T1 sequence (looked up) with H134R

T4: human FcγRIIb on the cell surface (HEK293T cells transfected with human FcγRIIb cDNA; primary human B cells) (human, UniProt P31994 43-310)
T4 chain: T2 sequence (looked up)

B1: anti-CD19 WT IgG1 antibody (HuAM4G7 Fv, native human IgG1 Fc) (antibody)
heavy: not shown
light: DIVMTQSPATLSLSPGERATLSCRSSKSLQNVNGNTYLYWFQQKPGQSPQLLIYRMSNLNSGVPDRFSGSGSGTEFTLTISSLEPEDFAVYYCMQHLEYPITFGAGTKLEIKRTVAAPSVFIFPPSDEQLKSGTASVVCLLNNFYPREAKVQWKVDNALQSGNSQESVTEQDSKDSTYSLSSTLTLSKADYEKHKVYACEVTHQGLSSPVTKSFNRGEC
notes: Parent of the Fc variants; also called anti-CD19-IgG1; anti-CD19 IgG1 WT; copies: 2 + 2
B2: ^236R/L328R (antibody, human IgG1, kappa)
heavy: EVQLVESGGGLVKPGGSLKLSCAASGYTFTSYVMHWVRQAPGKGLEWIGYINPYNDGTKYNEKFQGRVTISSDKSISTAYMELSSLRSEDTAMYYCARGTYYYGTRVFDYWGQGTLVTVSSASTKGPSVFPLAPSSKSTSGGTAALGCLVKDYFPEPVTVSWNSGALTSGVHTFPAVLQSSGLYSLSSVVTVPSSSLGTQTYICNVNHKPSNTKVDKKVEPKSCDKTHTCPPCPAPELLGRGPSVFLFPPKPKDTLMISRTPEVTCVVVDVSHEDPEVKFNWYVDGVEVHNAKTKPREEQYNSTYRVVSVLTVLHQDWLNGKEYKCKVSNKARPAPIEKTISKAKGQPREPQVYTLPPSREEMTKNQVSLTCLVKGFYPSDIAVEWESNGQPENNYKTTPPVLDSDGSFFLYSKLTVDKSRWQQGNVFSCSVMHEALHNHYTQKSLSLSPGK
light: B1 light
notes: HuAM4G7 IgG1 Fc variant; also called Fc-KO; FcγR knockout
B3: L235Y/S239D/S267E (antibody, human IgG1, kappa)
heavy: EVQLVESGGGLVKPGGSLKLSCAASGYTFTSYVMHWVRQAPGKGLEWIGYINPYNDGTKYNEKFQGRVTISSDKSISTAYMELSSLRSEDTAMYYCARGTYYYGTRVFDYWGQGTLVTVSSASTKGPSVFPLAPSSKSTSGGTAALGCLVKDYFPEPVTVSWNSGALTSGVHTFPAVLQSSGLYSLSSVVTVPSSSLGTQTYICNVNHKPSNTKVDKKVEPKSCDKTHTCPPCPAPELYGGPDVFLFPPKPKDTLMISRTPEVTCVVVDVEHEDPEVKFNWYVDGVEVHNAKTKPREEQYNSTYRVVSVLTVLHQDWLNGKEYKCKVSNKALPAPIEKTISKAKGQPREPQVYTLPPSREEMTKNQVSLTCLVKGFYPSDIAVEWESNGQPENNYKTTPPVLDSDGSFFLYSKLTVDKSRWQQGNVFSCSVMHEALHNHYTQKSLSLSPGK
light: B1 light
notes: HuAM4G7 IgG1 Fc variant
B4: G236D (antibody, human IgG1, kappa)
heavy: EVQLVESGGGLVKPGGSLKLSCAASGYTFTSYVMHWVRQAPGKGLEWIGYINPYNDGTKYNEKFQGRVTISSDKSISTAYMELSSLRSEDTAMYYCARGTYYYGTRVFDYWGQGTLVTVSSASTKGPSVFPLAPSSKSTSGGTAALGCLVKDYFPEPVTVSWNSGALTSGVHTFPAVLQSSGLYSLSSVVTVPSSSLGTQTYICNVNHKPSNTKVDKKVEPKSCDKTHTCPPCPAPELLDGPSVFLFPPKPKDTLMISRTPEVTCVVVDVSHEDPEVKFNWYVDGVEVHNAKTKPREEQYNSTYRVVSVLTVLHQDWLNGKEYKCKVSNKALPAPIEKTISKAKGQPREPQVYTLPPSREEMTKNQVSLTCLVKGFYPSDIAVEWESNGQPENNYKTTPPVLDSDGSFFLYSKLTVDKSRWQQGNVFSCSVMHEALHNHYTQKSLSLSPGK
light: B1 light
notes: HuAM4G7 IgG1 Fc variant
B5: anti-CD19 antibody HuAM4G7 IgG1 Fc variant L235Y/S267E (antibody)
heavy: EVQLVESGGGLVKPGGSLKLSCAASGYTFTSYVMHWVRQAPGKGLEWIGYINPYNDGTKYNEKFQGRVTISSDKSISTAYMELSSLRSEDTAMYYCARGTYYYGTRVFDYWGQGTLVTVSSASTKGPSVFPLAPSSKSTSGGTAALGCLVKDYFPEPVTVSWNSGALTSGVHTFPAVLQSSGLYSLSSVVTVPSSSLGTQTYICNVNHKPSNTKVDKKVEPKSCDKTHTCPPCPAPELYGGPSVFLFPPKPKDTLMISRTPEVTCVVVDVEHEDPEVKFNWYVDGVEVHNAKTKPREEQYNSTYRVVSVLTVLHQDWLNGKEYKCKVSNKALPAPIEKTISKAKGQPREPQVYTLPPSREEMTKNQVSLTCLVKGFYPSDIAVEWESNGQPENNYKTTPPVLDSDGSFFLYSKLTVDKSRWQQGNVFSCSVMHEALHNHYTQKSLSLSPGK
light: B1 light
notes: Positions are EU numbers, not positions on the UniProt entry; copies: 2 + 2
B6: L235Y/S267E/H268E (antibody, human IgG1, kappa)
heavy: B3 heavy with D243S, H272E
light: B1 light
notes: HuAM4G7 IgG1 Fc variant
B7: S239D (antibody, human IgG1, kappa)
heavy: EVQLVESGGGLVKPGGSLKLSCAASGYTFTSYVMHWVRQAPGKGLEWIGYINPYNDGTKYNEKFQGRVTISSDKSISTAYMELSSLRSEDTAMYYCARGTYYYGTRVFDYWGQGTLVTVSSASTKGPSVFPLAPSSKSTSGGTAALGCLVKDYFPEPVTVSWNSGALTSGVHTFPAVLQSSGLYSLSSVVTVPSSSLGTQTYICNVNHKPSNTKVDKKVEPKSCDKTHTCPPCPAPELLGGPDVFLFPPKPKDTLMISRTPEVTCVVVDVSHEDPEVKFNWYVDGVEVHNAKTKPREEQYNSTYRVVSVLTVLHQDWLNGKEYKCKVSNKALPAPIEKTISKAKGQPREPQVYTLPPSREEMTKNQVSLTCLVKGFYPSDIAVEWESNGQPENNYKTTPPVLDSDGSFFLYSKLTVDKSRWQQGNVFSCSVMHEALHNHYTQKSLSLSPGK
light: B1 light
notes: HuAM4G7 IgG1 Fc variant
B8: G236R/L328R (antibody, human IgG1, kappa)
heavy: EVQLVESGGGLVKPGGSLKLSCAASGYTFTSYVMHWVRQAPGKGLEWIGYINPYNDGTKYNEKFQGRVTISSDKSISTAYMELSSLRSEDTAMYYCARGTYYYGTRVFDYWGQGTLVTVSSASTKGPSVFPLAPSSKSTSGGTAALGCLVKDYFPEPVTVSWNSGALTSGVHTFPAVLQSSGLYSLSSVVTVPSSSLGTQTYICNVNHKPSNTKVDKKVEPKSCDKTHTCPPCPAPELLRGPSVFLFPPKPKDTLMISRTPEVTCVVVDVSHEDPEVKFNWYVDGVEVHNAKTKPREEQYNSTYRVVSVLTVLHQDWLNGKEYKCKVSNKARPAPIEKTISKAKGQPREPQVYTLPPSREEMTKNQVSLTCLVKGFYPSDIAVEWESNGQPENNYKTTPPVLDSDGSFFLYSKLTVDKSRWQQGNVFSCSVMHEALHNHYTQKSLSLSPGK
light: B1 light
notes: as for B2
B9: L235Y/S267E/L328F (antibody, human IgG1, kappa)
heavy: B3 heavy with D243S, L332F
light: B1 light
notes: HuAM4G7 IgG1 Fc variant
B10: anti-CD19 antibody HuAM4G7 IgG1 Fc variant S267E (antibody)
heavy: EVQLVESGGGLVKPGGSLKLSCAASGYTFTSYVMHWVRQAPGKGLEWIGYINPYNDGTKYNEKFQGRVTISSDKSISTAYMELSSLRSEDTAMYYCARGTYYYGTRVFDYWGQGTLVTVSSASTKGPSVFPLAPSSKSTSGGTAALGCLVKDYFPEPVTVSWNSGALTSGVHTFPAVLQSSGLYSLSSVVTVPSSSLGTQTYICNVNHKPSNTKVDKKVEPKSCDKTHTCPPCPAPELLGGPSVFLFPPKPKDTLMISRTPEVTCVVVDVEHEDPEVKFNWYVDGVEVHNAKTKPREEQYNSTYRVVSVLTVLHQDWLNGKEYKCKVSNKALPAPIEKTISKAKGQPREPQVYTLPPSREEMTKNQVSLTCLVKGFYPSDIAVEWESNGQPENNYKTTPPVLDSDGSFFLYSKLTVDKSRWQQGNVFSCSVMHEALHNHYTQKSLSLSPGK
light: B1 light
notes: as for B5
B11: S267E/A327E (antibody, human IgG1, kappa)
heavy: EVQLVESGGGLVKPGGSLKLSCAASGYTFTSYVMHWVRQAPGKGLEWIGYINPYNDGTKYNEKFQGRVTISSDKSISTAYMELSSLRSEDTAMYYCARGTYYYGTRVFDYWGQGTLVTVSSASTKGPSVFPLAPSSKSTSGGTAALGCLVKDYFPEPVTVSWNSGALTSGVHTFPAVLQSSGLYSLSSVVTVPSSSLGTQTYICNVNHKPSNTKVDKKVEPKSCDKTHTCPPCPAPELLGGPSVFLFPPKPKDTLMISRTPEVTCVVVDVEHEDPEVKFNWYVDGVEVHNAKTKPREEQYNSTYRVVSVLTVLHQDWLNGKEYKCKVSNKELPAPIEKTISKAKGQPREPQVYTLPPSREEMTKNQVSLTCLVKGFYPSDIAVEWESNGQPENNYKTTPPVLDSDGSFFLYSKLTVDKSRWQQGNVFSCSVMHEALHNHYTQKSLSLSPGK
light: B1 light
notes: HuAM4G7 IgG1 Fc variant
B12: anti-CD19 antibody S267E/L328F (HuAM4G7 Fv, human IgG1 Fc with S267E/L328F) (antibody)
heavy: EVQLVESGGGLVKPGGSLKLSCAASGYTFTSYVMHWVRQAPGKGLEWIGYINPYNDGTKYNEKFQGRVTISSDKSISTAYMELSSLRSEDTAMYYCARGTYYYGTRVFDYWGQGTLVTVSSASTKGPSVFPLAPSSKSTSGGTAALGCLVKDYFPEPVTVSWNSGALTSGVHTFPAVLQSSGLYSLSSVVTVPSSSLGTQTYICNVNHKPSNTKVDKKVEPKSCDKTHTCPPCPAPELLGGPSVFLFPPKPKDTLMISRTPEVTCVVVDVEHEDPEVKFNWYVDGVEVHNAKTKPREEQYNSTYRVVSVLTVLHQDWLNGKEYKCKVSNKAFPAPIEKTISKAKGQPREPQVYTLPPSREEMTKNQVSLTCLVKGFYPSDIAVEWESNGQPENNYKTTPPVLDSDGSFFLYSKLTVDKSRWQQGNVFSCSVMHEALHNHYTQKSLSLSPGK
light: B1 light
notes: They are treated here as one molecule; also called anti-CD19-S267E/L328F; a-CD19 S267E/L328F; copies: 2 + 2
B13: anti-CD19 antibody HuAM4G7 IgG1 Fc variant S267E/H268E (antibody)
heavy: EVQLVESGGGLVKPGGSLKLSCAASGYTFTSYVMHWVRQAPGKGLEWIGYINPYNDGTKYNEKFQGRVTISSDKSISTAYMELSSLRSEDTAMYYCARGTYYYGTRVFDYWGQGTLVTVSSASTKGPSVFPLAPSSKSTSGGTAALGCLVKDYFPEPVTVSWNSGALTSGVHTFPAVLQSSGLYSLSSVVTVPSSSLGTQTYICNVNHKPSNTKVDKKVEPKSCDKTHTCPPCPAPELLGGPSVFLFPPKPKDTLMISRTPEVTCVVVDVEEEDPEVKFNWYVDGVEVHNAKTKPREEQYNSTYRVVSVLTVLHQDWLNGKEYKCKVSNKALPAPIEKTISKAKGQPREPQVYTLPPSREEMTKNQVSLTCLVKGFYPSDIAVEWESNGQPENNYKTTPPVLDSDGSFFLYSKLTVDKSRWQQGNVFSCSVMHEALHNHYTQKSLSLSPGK
light: B1 light
notes: Positions are EU numbers, not positions on the UniProt entry; also called H268E/S267E; copies: 2 + 2
B14: V266M/S267E (antibody, human IgG1, kappa)
heavy: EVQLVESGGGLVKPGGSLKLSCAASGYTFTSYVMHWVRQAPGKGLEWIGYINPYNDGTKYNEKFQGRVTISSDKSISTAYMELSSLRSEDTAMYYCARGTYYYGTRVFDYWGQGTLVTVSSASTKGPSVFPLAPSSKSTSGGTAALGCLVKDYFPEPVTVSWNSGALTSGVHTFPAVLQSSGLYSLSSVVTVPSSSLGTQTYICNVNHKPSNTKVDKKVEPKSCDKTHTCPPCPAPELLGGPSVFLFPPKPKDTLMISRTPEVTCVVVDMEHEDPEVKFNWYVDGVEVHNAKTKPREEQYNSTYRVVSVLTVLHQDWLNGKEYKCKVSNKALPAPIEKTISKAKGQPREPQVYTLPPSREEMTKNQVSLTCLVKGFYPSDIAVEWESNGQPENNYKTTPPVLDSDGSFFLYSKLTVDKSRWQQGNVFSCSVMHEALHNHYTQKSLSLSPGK
light: B1 light
notes: HuAM4G7 IgG1 Fc variant

What follows are binders tested against T1, human H131 FcγRIIa receptor protein … (assay: SPR (Biacore)).

Fold FcγRIIaH [fold] | binding result | Binder
1 | – | B1
– | no binding | B2
1.05 | – | B3
0.167 | – | B4
0.941 | – | B5
0.157 | – | B6
1.1 | – | B7
– | no binding | B8
0.758 | – | B9

Each binder was assayed against T2, human FcγRIIb receptor protein (R&D …) (assay: SPR (Biacore)).

Fold FcγRIIb [fold] | binding result | Binder
1 | – | B1
20.4 | – | B10
– | no binding | B2
30.9 | – | B11
116 | – | B3
242 | – | B12
1.54 | – | B4
40.6 | – | B13
37.2 | – | B5
69.9 | – | B6
29.2 | – | B14
3.6 | – | B7
– | no binding | B8
187 | – | B9

The binders below were run against T5, human V158 FcγRIIIa receptor protein (6xHis and GST tags) (human, UniProt P08637 17-208, limits assumed) (assay: SPR (Biacore)).
T5 construct: also called VIIIa
T5 sequence (P08637 17-208 F176V limits assumed): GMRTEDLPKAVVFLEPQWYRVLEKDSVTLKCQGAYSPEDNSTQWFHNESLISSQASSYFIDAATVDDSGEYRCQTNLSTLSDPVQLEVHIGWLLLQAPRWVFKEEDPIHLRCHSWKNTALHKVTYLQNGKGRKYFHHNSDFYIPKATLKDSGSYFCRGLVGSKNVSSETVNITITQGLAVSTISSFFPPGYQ

Fold FcγRIIIaV [fold] | binding result | Binder
1 | – | B1
0.381 | – | B10
– | no binding | B2
2.6 | – | B3
0.038 | – | B12
– | no binding | B4
3.15 | – | B13
0.428 | – | B6
0.0448 | – | B14
8.14 | – | B7
– | no binding | B8
– | no binding | B9

The binders below were run against T3, FcγRIIaR (assay: SPR (Biacore)).

Fold FcγRIIaR [fold] | binding result | Binder
1 | – | B1
29.5 | – | B10
– | no binding | B2
29.3 | – | B11
98.9 | – | B3
275 | – | B12
0.758 | – | B4
41.7 | – | B13
37.5 | – | B5
48.2 | – | B6
30.7 | – | B14
3.73 | – | B7
– | no binding | B8
171 | – | B9

These binders were tested against T6, human FcγRI receptor protein (R&D Systems) (human, UniProt P12314 16-288) (assay: SPR (Biacore)).
T6 construct: also called CD64
T6 sequence (P12314 16-288 limits assumed): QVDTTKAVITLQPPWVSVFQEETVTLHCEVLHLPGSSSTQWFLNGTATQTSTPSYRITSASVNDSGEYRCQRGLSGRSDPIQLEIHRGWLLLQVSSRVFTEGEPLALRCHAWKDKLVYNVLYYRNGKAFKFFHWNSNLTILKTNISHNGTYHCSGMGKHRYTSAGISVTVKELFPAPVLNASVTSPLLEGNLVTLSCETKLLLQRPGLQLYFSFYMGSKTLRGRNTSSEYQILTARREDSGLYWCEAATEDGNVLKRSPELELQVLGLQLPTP

Fold FcγRI [fold] | binding result | Binder
1 | – | B1
2.81 | – | B10
– | no binding | B2
2.3 | – | B11
1.07 | – | B3
1.5 | – | B12
0.0211 | – | B4
3.52 | – | B13
0.00347 | – | B5
0.0103 | – | B6
1.98 | – | B14
3.53 | – | B7
– | no binding | B8
0.00436 | – | B9

These binders were tested against T7, FcγRIIIaF (human, UniProt P08637) (assay: SPR (Biacore)).
T7 construct: recombinant receptor protein with 6xHis and GST tags; also called F158 FcγRIIIa
T7 sequence (P08637 17-208 limits assumed): as the sequence (P08637 17-208 F176V limits assumed) above, with V160F counted along it

binding result | Fold FcγRIIIaF [fold] | Binder
no binding | – | B2
no binding | – | B4
– | 6.32 | B7
no binding | – | B8

Target: T4, human FcγRIIb on the cell surface …
Test: flow cytometry on FcγRIIb-transfected HEK293T cells

EC50 (read off the curve) [ng/mL] | Binder
~6 | B5

Target: T4, human FcγRIIb on the cell surface …
Test: flow cytometry on HEK293T cells transfected with human FcγRIIb, PE anti-human Fab detection

fold EC50 relative to WT IgG1 [fold] | Binder
~320 | B12

Target: T4, human FcγRIIb on the cell surface …
Test: flow cytometry on FcγRIIb-transfected HEK293T cells
Remark: another data set of the same source

EC50 (read off the curve) [ng/mL] | Binder
~20 | B10

The binders below were run against T2, human FcγRIIb receptor protein (R&D …) (assay: Biacore SPR ('according to the data herein')).
Method: (§1) Variants were screened for receptor affinity using Biacore™ technology, also referred to as Biacore herein, a surface plasmon resonance (SPR) based technology for studying biomolecular interactions in real time. SPR measurements were performed using a Biacore 3000 instrument (Biacore, Piscataway, N.J.). A protein A/G (Pierce Biotechnology) CM5 biosensor chip (Biacore) was generated using a standard primary amine coupling protocol. All measurements were performed using HBS-EP buffer (10 mM HEPES pH 7.4, 0.15 M NaCl, 3 mM EDTA, 0.005% vol/vol surfactant P20, Biacore). Antibodies at 20 nM or 50 nM in HBS-EP buffer were immobilized on the protein A/G surface and FcγRs were injected. After each cycle, the surface was regenerated by injecting glycine buffer (10 mM, pH 1.5). Data were processed by zeroing time and response before the injection of FcγR and by subtracting appropriate nonspecific signals (response of reference channel and injection of running buffer). Kinetic analyses were performed by global fitting of binding data with a 1:1 Langmuir binding model using BIAevaluation software (Biacore).

Kd [nM] | Binder
~1500 | B1

The binders below were run against T2, human FcγRIIb receptor protein (R&D …) (assay: Biacore SPR, antibody captured on protein A/G, FcγR injected).
Method: as §1

improvement in affinity relative to WT IgG1 | Binder
> 2 orders of magnitude | B12

Target: T4, human FcγRIIb on the cell surface …
Test: flow cytometry on FcγRIIb-transfected HEK293T cells
Remark: another data set of the same source

EC50 (read off the curve) [ng/mL] | Binder
~30 | B10
~10 | B11
~10 | B13
~10 | B14
